Assay: soluble on expression in E. coli; label from the status in PepcDB or PDB records

| Sequence | soluble on expression in E. coli |
| --- | --- |
| MEENLERTESLAREADDCHPIFRIAPSTVEFNKLRKRLLRHIRQAFDDFSMLSSGKKWLVALSGGKDSYGLLALLLDLKWRGLLPVEILACNLDQGQPGFPKHILPDFLNSYQIPHRIEYQDTYSIVTDKLVHTQTYCSLCSRLRRGNLYRIAREEGCSALVLGHHRDDVLETFFMNLFHGGRLAAMPGKLINDEGDLFVLRPLVYAAEEDMEKFSQAMQFPIIPCNLCGSQDGLQRNAMKEMLKDIERKMPGRKDTMIRALTNVRPSHLLDKKFFDFKNLF | not soluble |
| MNDQELRAYLSQAKTIAVLGAHKDPSRPAHYVPRYLREQGYRVLPVNPRFQGEELFGEEAVASLLDLKEPVDILDVFRPPSALMDHLPEVLALRPGLVWLQSGIRHPEFEKALKEAGIPVVADRCLMVEHKRLFRGPLPL | soluble |
| AHHHHHHGSIHIIEEYFRPYPARKKVAQILWEAGMSVKDGKIYVKGVEVPISGIAQVAGVNRKIVYHTIEYIESKPALKLLFENLSPRTSLISIAPLMGWEVLELTIQKGKYEKTLAKVLESLAERRVRVIEIFGSNPYEEKSKAFLVVEGIVPFEVISSLREEGSLERIVIHTPEKEKERMICPKCEIKYCPRKIFISTR | soluble |
| MSLGSTQLQLHGLLSNISSKEGTYAKLGGLYTQSLARLVAKCEDLFMGGQKKELHFNENNWSLFKLTCNKPCCDSGDAIYYCATCSEDPGSTYAVKICKAPEPKTVSYCSPSVPVHFNIQQDCGHFVASVPSSMLSSPDAPKDPVPALPTHPPAQEQDCVVVITREVPHQTASDFVRDSAASHQAEPEAYERRVCFLLLQLCNGLEHLKEHGIIHRDLCLENLLLVHCTLQAGPREKQLPRLIISNFLKAKQKPGGTPNLQQKKSQARLAPEIVSASQYRKFDEFQTGILIYELLHQPNPFEVRAQLRERDYRQEDLPPLPALSLYSPGLQQLAHLLLEADPIKRIRIGEAKRVLQCLLWGPRRELVQQPGTSEEALCGTLHNWIDMKRALMMMKFAEKAVDRREGHHHHHH | not soluble |
| MRDTLVLNASFEPLSTVTLNRAVILVLQDKAVVEQAHPELRMRGAALDIPVPRVIRLCRYVRVPFRRQAPWSRRGVLVRDRHRCAYCGRRATTVDHVVPRAQGGQDSWLNTVASCAEDNHRKAARTPEQAGMPLLRQPFEPTPADAMLLALGQDDFESLPEWLAQPAALEHHHHHH | not soluble |
| MMFVKNNFNTNNFDAELVEAIGNRLENNQFSDAILAGTKYLTTLLREKGQCEGDGAQLVGTVLGGQSPRIQINSLQSVSEQDEQRGFEALLRGYYQCIRNPRTHDNFPDTEDSCMRILIMLDTFIKYLKRDVAEFDYTAILERIYEVHFVNNSDYAEALISQIPEKKLLDFFQSLISRFNERPTKEIDSIFKAINQRFSGEEEKAAMRLLGDELRKASNNVEFANVFRIIKPSAWRNLPDDVLIRMENIIIEECKKGYLDFYSDATKGAIGTWGNTFGSKFKRRGDLGDALIGLLYDSWYTQNYVAKYYVFSIPSIITDDVKVKELADALAYATIVNGAKLLRTKLIDACKNYPDKLKEHLRDAVQQRMDSDKKYAEELLGQIS | not soluble |
| MGSDKIHHHHHHMESTRRIYASPSYEVYGLSRNPFIELASEGIEDIESIHVYQEVDMRISSLISDVIGNRSSITLSIVGPLGMGKTQRLKSIARVIEDRGGKVIYIKVDTTDVLKITRDIFASLRPPKNRTNVFLENLSRKLGFITRLEKMLSSTDEYKSRDIAEMLTRELSKYQYSALLLDELENMRGATEKEKILFFEMLRHFISNMPPGCVFAFASIPEAYEEYSSQFPAFFMRLHYEFKLRPMSYQEIIELVKKRLAKVRIRDTADPLYPFTEDAIKLIHELGKGNPRQILRLLNYVLSEAVKHKFDPINEYVVTTILEEPKSLEEYIARIPSDFKDLVKVIVEKFEGGPVSYIQIAKELKIPGMEAYEKLEHLVSLGFLVGDPRGNYKVPDYVRKFLEEKGE | not soluble |
| MAKIGENVPLLIDKAVDFMASSQAFREYLNKTPPRDYVPSEVPSESAPIYLQRLEYYRRLYRPKEEERG | not soluble |
| MTARYIAIDWGSTNLRAWLYQGEECLESRQSEAGVTRLNGRSPAAVLAEITQHWRDGATPVVMAGMVGSNVGWKIAPYLPLPAAFSDIGQQLTAVGDNIWIIPGLCVSRDDNHNVMRGEETQLLGARALAPSSVYVMPGTHCKWVLADRRQIHDFRTVLTGELHHLLLQLSLVGAGLPPQETSAAAFAAGLQRGINNPAVLPQLFEVRASHVLGALPREQVSEFLSGLLIGAEVATLSDTFAGQQAISLVAGSSLTSRYQQAFAAIGREVSAVAGDTAFQTGIRSIAYAVAN | soluble |
| MGSDKIHHHHHHMITIDALGQVCPIPVIRAKKALEGLGEAGGVVAVLVDNDISRQNLQKMAEGMGYQSEYQEKDNGVIEVTIVAGEGCAVETSGTPADSGLVVAIGRNTMGEGSEELGRILLKGFIYSLRELTPPPARLLFFNSGAYLTSKDSNSIEDLKAMAAQGTIIQTCGTCINYYGITEQLAVGQVANMYDIVTAMAEAKRLINI | not soluble |
| MKKYLLSFLLSMILTLTSHAESNPDPTTYPDVELSPPPRISLRSLLTAQPIKNDHYDSHNYLSTHWELIDYKGKEYEKLRDGGTLVQFKVVGAAKCFAFPGEGTTDCKDIDHTVFNLIPTNTGAFLIKDALLGFCMTSHDFDDLRLEPCGISVSGRTFSLAYQWGILPPFGPSKILRPPVGRNQGS | soluble |
| MTYFIDVPTMSDLVHDIGVAPFIGELAAALRDDFKRWQAFDKSARVASHSEVGVIELMPVADKSRYAFKYVNGHPANTARNLHTVMAFGVLADVDSGYPVLLSELTIATALRTAATSLMAAQALARPNARKMALIGNGAQSEFQALAFHKHLGIEEIVAYDTDPLATAKLIANLKEYSGLTIRRASSVAEAVKGVDIITTVTADKAYATIITPDMLEPGMHLNAVGGDCPGKTELHADVLRNARVFVEYEPQTRIEGEIQQLPADFPVVDLWRVLRGETEGRQSDSQVTVFDSVGFALEDYTVLRYVLQQAEKRGMGTKIDLVPWVEDDPKDLFSHTRGRAGKRRIRRVA | soluble |
| MGSDKIHHHHHHDAPLEQALTLAGDNRKELQQVLGHYEGDSLKHKAACFLIENMIGKGTIRYLLRESDSCYIQQEPEPDLTCITADYLIENIDLAFEVWQKYPWCKQLSFREFCRNILPYRLKQEPLDRWRSYYYTRYKMTVDSLARAGATMREIVFFFNSQHGKKYLHDAAKIPGDFSIELIEKLGGGTCDHLALNAVQLMRAVGIPLNLDILPYHGKVNGGHAYNSFTDENGKFFYFSPYEREPERNQWIAPLVQRVCYERQPEPKIGRNRWNTQLVNRLLKEVTDEYYLSDSVRLPVHTSDTVAYIATFNRGAFKVVSQGRVESNSVLHRVLPYGLLYFQMADKKGKLVPTGNPFVMTPDSIHFITPIRQTTVLNGILTYDVKRVLELGYEAYTLYYWKDGWQPVKEVTSKDSRTLDFGEVPVRSLFLVCGNTYMGRMQRPFLLEDGKPVYY | not soluble |
| MSYSIDNPGGGDCGFYALAIGLISIIQNEYKLHGKSKTYDRWKQVENIYGVRLQDILNIDLTKLHYSPYTYKSELLFLLQMSLRNIAVIVNKEDLVKRIIEEGRSKDQTKIEGSNAYCKFMELVQLYLYRRGSLERISQFNELALSPEIVQTARDIARMLRPILRNQPFHQAQKIENAFVKEVLLNDVLSGNTINSNSIILKSLEKIKEQGRWATHDDLKEIAELLKINLNVVGQPNGKPIPEYPTVTLKNLSNTHWITQVESLQGPRQYSTPSKRAFGYETLSDRAVPLKEEQTLDRAFRTETQSERTRRYNQHFETLFDTLSPYGFFPHVQSKRNVHVFGKAQTGLESDEALAAQLQEAELRRILY | not soluble |
| MIVILDNGGQYVHRIHRSLKYIGVSSKIVPNTTPLEEIESNKEVKGIILSGGPDIEKAKNCIDIALNAKLPILGICLGHQLIALAYGGEVGRAEAEEYALTKVYVDKENDLFKNVPREFNAWASHKDEVKKVPEGFEILAHSDICQVEAMKHKTKPIYGVQFHPEVAHTEYGNEILKNFCKVCGYKFE | soluble |
| SMKFQARVLTLYPEMFPGFLGCSLAGQALKQGIWSLETVQIRDFALDKHHSVDDTPAGGGAGMVMRADVLAAALDSCPNDSPRLLMSPRGRLLNQAYARSLARSSGVTLVCGRFEGVDERIIEARELEEVSIGDYILSGGETAALVLLDAIVRLLPGVMGNEISAKCESFENGLLEHPQYTRPAVFEGRGIPPVLTSGHHKAIANWRQQQAESLTRQRRPDLYALYNKNRQKT | soluble |
| MPFLPPLTPPTELYLGIQLPSPISILVNYLPVSQTPIETLRNLVYSCDINTLAIDEFMTWPSLLQPGSPFRPYFEVLVERGSIPAVYLEGVRQASNFVTVAQGLSVMTTVALSDPFACFATGLFLTCTGNHLDFLPISEKFWEMTPTLEAGHAVAEMVMYHISQLHTENARRWERSWRFVHLPSCVGQCTFHHGCRVCFFYWYAREMAIFY | soluble |
| MPVMSLIEQYEAAIYRGEIDSDPEQREILEHMQRLAEDLQKKSDSWFPWRKKHPIKGLYIYGPVGVGKTYLVDLFYQHIDEEKKARFHFHHFMQQIDAQLRRLQGKKNPLQYIAKEMAKSIRLLCFDEFLVHDVAYAMILAELLQALHHYGVVLVVSSNTRPDELYLNGVHRERFIPAIEIIKKNCEVLNLNQKRDYRLGRQPLLEAYLYPLNEQTQEAMEKQFALITREEDCKGFITVQNRDIPYIKYGTRSIWFAFDVICNFPRSQLDYLEIADRFDNVFLSDVYQLTESHTAQAIMFIHFIDVMYDRGIKLIISADVPAEELYVKGEMKETFKRTLSRLIEMQSVDYLSRHPRRLVKEMLLEHHHHHH | not soluble |
| AFTFLHTADLHLDAPLRAVALRDPELAAEIGVASRTAFSRIVDLCLAEAVAFLVIAGDLWDGTYSSTKTPRFLKQELLRLEAAGIGCYILRGNHDALARQTGELEAPANTTVFGARPSTVELSIDGQPVALHGLSFREPHAPESLLPRYPAPKPGAFNLGLMHTSLNGSPGHDPYAPCSLAELEAHGYDYWALGHIHRRFVHRGRATVVMPGTPQGRDIGEAGAASVTLVQVGDDGAVTLEERSVA | not soluble |
| MSLPEDYWSAKDYQRNASFVPKLTKDIVKRINLSSSDELLDLGCGDGVLTNELVSQCRRVVGIDASPDMIKAARELGLNAYVIPGEKLLDASEIPSESFDVVFSNAALHWIMRQPKNRPIVMKGVSRVLRTKGRFVAECGAFGNVSEVVGSIYSILLALGATKEQIDQANPWFFGSEDDYTRMLEEAGFHVEYVENISRPTLLNKDVREWLDTFAQHFYHAFPQWKDIIRETVYNALLVTDCRSDGKWFLQYRRLRFVAHKEEGHHHHHH | soluble |
| LDRAYLRVENQRYRDKLEAANRELQASLNLLQEDQNAGRQVQMNMLPVTPWSIEGLEFSHRIIPSLYLSGDFVDYFRVDERRVAFYLADVSGHGASSAFVTVLLKFMTTRLLYESRRNGTLPEFKPSEVLAHINRGLINTKLGKHVTMLGGVIDLEKNSLTYSIGGHLPLPVLFVEGQAGYLEGRGLPVGLFDDATYDDRVMELPPSFSLSLFSDGILDVLPGATLKEKEASLPEQVAAAGGTLDGLRQVFGLANLAEMPDDIALLVLSRNLA | not soluble |
| GHMAKAYKQAGVDIEAGYQAVALMKEHVQKTMRPEVLGGIGGFGGLFDLSALGYRQPVLISGTDGVGTKLKLAFLLDRHDTIGIDCVAMCVNDIIVQGAEPLFFLDYIACGKAVPEKIAAIVKGVADGCVEAGCALIGGETAEMPGMYDEDEYDLAGFAVGVAEKERLITGETIQAGDALVGLPSSGLHSNGYSLVRRIVFEQAKLSLDEIYEPLDVPLGEELLKPTRIYAKLLRSVRERFTIKGMAHITGGGLIENIPRMLPPGIGARIQLGSWPILPIFDFLREKGSLEEEEMFSVFNMGIGLVLAVSPETAAPLVEWLSERGEPAYIIGEVAKGAGVSFAGGGRA | soluble |

From the DeepSol protein solubility set
